Assay results published in patent publication US6822075.

Columns and labels:
[1] = target: Human polyclonal IgG (human); assay: affinity constant, method not stated; same result as the 1st table, row 8, column 7 but printed with its power of ten
[2] = target: Human polyclonal IgG (human); assay: affinity constant, method not stated; table prints no power of ten

- Ka [1]: 2e+10 M⁻¹
- Ka [2]: 20 M⁻¹
B1: Protein LG (protein)
chain: AVENKEETPETPETDSEEEVTIKANLIFANGSTQTAEFKGTFEKATSEAYAYADTLKKDNGEYTVDVADKGYTLNIKFAGKEKTPEEPKEEVTIKANLIYADGKTQTAEFKGTFEEATAEAYRYADALKKDNGEYTVDVADKGYTLNIKFAGKEKTPEEPKEEVTIKANLIYADGKTQTAEFKGTFEEATAEAYRYADLLAKENGKYTVDVADKGYTLNIKFAGKEKTPEEPKEEVTIKANLIYADGKTQTAEFKGTFAEATAEAYRYADLLAKENGKYTADLEDGGYTINIRFAGKKVDEKPEEPMDTYKLILNGKTLKGETTTEAVDAATAEKVFKQYANDNGVDGEWTYDDATKTFTVTEKPEVIDASELTPAVTTYKLVINGKTLKGETTTKAVDAETAEKAFKQYANDNGVDGVWTYDDATKTFTVTEM
